According to the supplement of paper PMC9170038:

Test system: MS2 coat protein
Assay: apparent KD of MS2 coat protein; designed switch direction (-1 OFF switch, 1 ON switch): 1; higher = weaker reporter binding
Outline: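 On Illumina chips, designed RNA switches with common flanks were made by stalled E. coli RNA polymerase. Titrations with SNAP-549-labelled MS2 coat protein, doubling from 0.7 or 1.5 nM to 3 µM, were done with no input, with 200 uM small-molecule ligand, or with an oligonucleotide input. Apparent KD is the median per design over clusters, from curve fits of normalised cluster fluorescence.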

[1] = input ligand: microRNA oligo, concentration not stated
[2] = Eterna round: R95, input ligand: FMN 200 uM
[3] = Eterna round: R95, input ligand: microRNA oligo, concentration not stated
[4] = Eterna round: R95, input ligand: none

Row | Sequence | apparent KD of MS2 coat protein (input ligand: FMN 200 uM) | apparent KD of MS2 coat protein [1] | apparent KD of MS2 coat protein (input ligand: none) | apparent KD of MS2 coat protein [2] | apparent KD of MS2 coat protein [3] | apparent KD of MS2 coat protein [4]
1 | CGAGCCGGCACUGAGGAUAUUCAUAUUUAAACAUGAGGAUCACCCAUGUAGGCCAGAAGGCCUUGGGAGAAGGCAGGUCGGCUCC [salish99_ss2_r3_080] (Eterna round: R96, puzzle: Same State 2) | 22.3 nM | 220 nM | 312 nM |  |  | 
2 | UAAAGAUAGCGAGGAUAUCGCGAGGAUCACCCGUGAGAAGGCGCAGAGCCGAGGAUCACCCGGCUGAUCCUGAGGAGGAGGUCA (Eterna round: R96, puzzle: Same State NG 1) | 108 nM | 197 nM | 249 nM |  |  | 
3 | UCUAUUGUGGUAGGAUAUCUAGGAUAUGGGAAGAGCUAAGCUUGGAAGUCACUUCACCCAGAAGGAGAGAAGGACCAGAGACUU [pwkr ssNG2 2FMN + F9.7] (Eterna round: R96, puzzle: Same State NG 2) | 1230 nM | 778 nM | 475 nM |  |  | 
4 | AUUUUGAAUGCAGGAUAUGAUUAACAUGAGGAUCACCCAUGUGGUGUUGUGAGUAAGGAGAGUGAUCAGAAGGGCAUUUUUUUU [JMF's solution 96] (Eterna round: R96, puzzle: Same State NG 2) | 599 nM | 452 nM | 445 nM |  |  | 
5 | AAUUUAAUACAUGAGGAUCACCCAUGUAAAUUAAUUAAGAUCUAGGAUAUCAGCUCGAUUAGAGCUGAGAAGGAGAUCACAUGU [SSNG3/19-B2] (Eterna round: R96, puzzle: Same State NG 3) |  | 12 nM |  |  |  | 
6 | CAGUGCUGUCGAGAGGAUAUGCGGUGAUGGACAUGAGGAUCACCCAUGUUAGCGACAGCGUCACGGCAGAAGGCUCUACCCACUG [Soteed Omei mod 46] (puzzle: Same State 2) |  |  |  | 11.7 nM | 15.3 nM | 18.2 nM
7 | UACAAACGCGGAGGAUAUGGGCGAGGCGCAGAGGUCUGCGUCAAAACAUGAGGAUCACCCAUGUCCCAGAAGGCCGCGCAAACU [Anorra] (Eterna round: R96, puzzle: Same State NG 2) | 16.3 nM | 73.8 nM | 56.1 nM |  |  | 
8 | AUAAGUUUGAUGCUCGUCUCUUCGUACAGACAUGAGGAUCACCCAUGUAGUCGGGAAGUAGCCCGGCCAGUAUGACC [Usraisqu] (puzzle: Sensor for hsa-mir-208a) |  |  |  | 197 nM | 40.5 nM | 468 nM
9 | CGUCGCUGUCGAGAGGAUAUGCGGUGAUGGACAUGAGGAUCACCCAUGUUAGCGAUAGUAUCACGGUAGAAGGCUCUUACGACUG [Soteed Omei mod 26] (puzzle: Same State 2) |  |  |  |  | 26.7 nM | 
10 | UUUAGAUAGCGAGGAUAUCGCGAGGAUCACCCGUGAGAAGGCGCAGAGCCGAGGAUCACCCGGCUGAUCCUGAGAAGGAGGUCA (Eterna round: R96, puzzle: Same State NG 1) | 92.3 nM | 155 nM | 245 nM |  |  | 
11 | UGGUACAUGGGAGGAUAUCUCAUGGAGACAUGAGGAUCACCCAUGUAGUUGGGCCGGAAACGGUGAGAGAAGGCCCAUGUACCU [JL SSNG1 3.71] (Eterna round: R96, puzzle: Same State NG 2) | 377 nM | 338 nM | 473 nM |  |  | 
12 | GGAGAGAAGUGAGGAUAUGCAUGGAAGACACAUGAGGAUCACCCAUGUGGGAGGGAAACCGGGAGGUAGAAGGCACUGGGAAGA [AK SSNG2-V2-25] (Eterna round: R96, puzzle: Same State NG 2) | 83.7 nM | 24.1 nM | 107 nM |  |  | 
